Ends that are not written are not given here.
T1: LSALT peptide (LSALTPSPSWLKYKAL)
T1 chain: LSALTPSPSWLKYKAL

T2: human DPEP3 (human, UniProt Q9H4B8 36-463)
T2 construct: whole, on cells; Transiently expressed on Cos-1 cells
T2 sequence (looked up): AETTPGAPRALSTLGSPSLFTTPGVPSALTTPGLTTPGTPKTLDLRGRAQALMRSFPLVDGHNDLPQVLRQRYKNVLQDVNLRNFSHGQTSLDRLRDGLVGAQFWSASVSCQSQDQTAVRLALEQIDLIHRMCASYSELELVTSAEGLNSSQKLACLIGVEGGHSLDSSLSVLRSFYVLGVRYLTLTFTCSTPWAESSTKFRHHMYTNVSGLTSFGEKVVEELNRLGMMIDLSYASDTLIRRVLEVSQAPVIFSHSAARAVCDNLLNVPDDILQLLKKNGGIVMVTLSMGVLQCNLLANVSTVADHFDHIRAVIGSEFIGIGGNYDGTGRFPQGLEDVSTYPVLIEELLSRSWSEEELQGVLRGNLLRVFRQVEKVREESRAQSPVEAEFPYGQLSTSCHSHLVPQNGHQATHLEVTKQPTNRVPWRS

T3: human membrane dipeptidase (DPEP-1) (human, UniProt P16444 17-385)
T3 construct: whole, on cells; The background section describes DPEP-1 as a disulfide-linked homodimer; also called renal dipeptidase; dehydropeptidase-1
T3 sequence (looked up): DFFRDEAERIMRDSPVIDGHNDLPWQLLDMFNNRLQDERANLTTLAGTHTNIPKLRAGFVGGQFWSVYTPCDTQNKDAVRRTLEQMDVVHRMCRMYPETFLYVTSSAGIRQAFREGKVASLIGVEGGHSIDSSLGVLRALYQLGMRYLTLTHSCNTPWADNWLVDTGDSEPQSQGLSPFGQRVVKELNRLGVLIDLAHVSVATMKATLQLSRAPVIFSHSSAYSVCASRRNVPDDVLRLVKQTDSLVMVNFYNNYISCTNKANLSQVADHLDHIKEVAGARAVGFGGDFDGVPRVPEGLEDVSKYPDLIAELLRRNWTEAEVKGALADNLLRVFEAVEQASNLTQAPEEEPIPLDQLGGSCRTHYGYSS


Key:
[1] = target: T1, LSALT peptide (LSALTPSPSWLKYKAL)
human DPEP2 = target: T4, human DPEP2 (human, UniProt Q9H4A9 33-463); assay: immunofluorescence microscopy of Alexa-488 peptide on transfected Cos-1 cells
T4 construct: whole, on cells; Transiently expressed on Cos-1 cells
T4 sequence (Q9H4A9 33-463): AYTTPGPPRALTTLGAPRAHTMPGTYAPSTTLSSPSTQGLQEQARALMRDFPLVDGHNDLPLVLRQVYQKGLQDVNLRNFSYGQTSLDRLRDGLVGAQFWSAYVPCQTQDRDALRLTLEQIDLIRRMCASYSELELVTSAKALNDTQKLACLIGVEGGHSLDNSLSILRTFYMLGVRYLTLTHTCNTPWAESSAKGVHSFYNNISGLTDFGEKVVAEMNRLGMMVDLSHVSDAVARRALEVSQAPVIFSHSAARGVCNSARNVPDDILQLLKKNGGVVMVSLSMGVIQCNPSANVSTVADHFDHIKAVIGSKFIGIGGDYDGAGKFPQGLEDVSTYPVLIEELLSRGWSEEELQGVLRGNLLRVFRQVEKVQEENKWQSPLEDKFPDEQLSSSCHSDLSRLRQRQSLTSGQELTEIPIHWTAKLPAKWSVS
Protocol: (§1) Cos-1 cells were transiently transfected with either 3 μg of human DPEP-1, DPEP2, or DPEP3 gene using lipofectamine 2000 (Invitrogen) reagent in OptiMEM medium. 24 hours after transfection, DPEP-1, DPEP2, or DPEP3 expressing cells were re-seeded on collagen coated (neutralized) wells in 24 well plates and allowed to grow for 24 hours at 37° C. 24 hours after seeding, media was removed and cells were washed with PBS. Cells were blocked with FBS/NBSA/Tween in PBS for 30 minutes on ice. Cells were then washed with PBS and incubated with LSALT or GFE-1, conjugated with Alexa-488 (green). After incubation, cells were washed with PBS and stained with DAPI for 5 minutes on ice. Cells were then washed with PBS and fixed using 4% paraformaldehyde and immunofluorescence microscopy was performed to assess binding. Representative photomicrographs are shown for each experimental condition (n=3) in FIG. 6A. Proteins from DPEP-1, DPEP2 and DPEP3 transfected cells were isolated after 48 hours using octyl-glucoside/RIPA lysis buffer and western blot analysis was performed to assess DPEP-1, DPEP2 and DPEP3 protein expression using specific antibodies; DPEP-1 antibody (Sigma), DPEP2 (Abcam) and DPEP3 (Santacruz). Blots were stripped and reprobed with an anti-β-actin.

human DPEP3 = target: T2, human DPEP3; assay: as above
Protocol: as §1

[2] = target: T5, rat membrane dipeptidase (DPEP-1) (rat, UniProt P31430 17-384); assay: immunofluorescence microscopy of Alexa-568 peptide on Cos-7 cells transfected with rat DPEP-1
T5 construct: whole, on cells; Transiently expressed on Cos-1 or Cos-7 cells; also called renal rat membrane dipeptidase; rat DPEP-1
T5 sequence (P31430 17-384): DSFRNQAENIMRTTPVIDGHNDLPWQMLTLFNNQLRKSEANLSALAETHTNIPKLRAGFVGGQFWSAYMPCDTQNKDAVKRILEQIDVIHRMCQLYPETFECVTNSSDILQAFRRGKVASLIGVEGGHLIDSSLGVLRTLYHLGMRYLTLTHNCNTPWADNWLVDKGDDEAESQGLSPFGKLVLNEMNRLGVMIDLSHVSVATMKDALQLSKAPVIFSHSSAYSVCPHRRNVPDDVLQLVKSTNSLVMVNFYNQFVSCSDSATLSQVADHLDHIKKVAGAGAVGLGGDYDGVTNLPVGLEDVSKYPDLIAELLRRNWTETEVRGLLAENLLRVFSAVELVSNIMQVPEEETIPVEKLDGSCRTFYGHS
Protocol: Cos-7 cells were transiently transfected with 5 μg of renal rat membrane dipeptidase (DPEP-1) plasmid using lipofectamine 2000 (Invitrogen) reagent. 48 hours after transfection, media was removed and cells were washed with PBS. Cells were incubated with LSALT conjugated with Alexa-488 (Green), GFE-1 peptide conjugated with Alexa-568 (Red) or control peptide conjugated with Alexa-488 (Green) on ice for 30 minutes. Cells were washed and fixed using 4% paraformaldehyde and immunofluorescence microscopy was performed to assess binding. Shown are representative photomicrographs of each experimental condition (n=2).

[3] = target: T5, rat membrane dipeptidase (DPEP-1); assay: immunofluorescence microscopy of Alexa-488 peptide on Cos-1 cells transfected with rat DPEP-1
Protocol: Cos-1 cells were transiently transfected with either 3 or 5 μg of membrane dipeptidase (DPEP-1) cDNA corresponding to the rat (Shown in FIG. 5A) or human DPEP-1 (Shown in FIG. 5B) gene using lipofectamine 2000 (Invitrogen) reagent in OptiMEM medium. 24 hours after transfection, DPEP-1 expressing cells were re-seeded on collagen coated (neutralized) wells in 24 well plates and allowed to grow for 24 hours at 37° C. 24 hours after seeding, media was removed and cells were washed with PBS. Cells were blocked with FBS/NBSA/Tween in PBS for 30 minutes on ice. Cells were then washed with PBS and incubated with Alexa-488 (green) conjugated LSALT, GFE-1, control peptide or DPEP-1 antibody ( 1/100) (Sigma) on ice for 30 minutes. […] After incubation, cells were washed with PBS and treated with 10 mg/ml biotin transfer peptide (LSALT, GFE-1 or Control Peptide (KGAL)] for 10 minutes. Cells were then washed with PBS and biotin transfer was enabled by UV activation of the aryl azide groups for 15 minutes at 363 nm. Residual fluid was removed and monolayers were lysed either with octyl-glucoside/RIPA or 8M urea. Isolated supernatants were rotated with 50 μl of neutr-avidin agarose beads at 4° C. for 24 hours. Beads were washed with corresponding buffers, boiled in Laemmli buffer and analyzed by western blot using a DPEP-1 specific antibody (Proteintech).

[4] = target: T3, human membrane dipeptidase (DPEP-1); assay: immunofluorescence microscopy of Alexa-488 peptide on Cos-1 cells transfected with human DPEP-1

Row | Binder | membrane dipeptidase (DPEP-1) enzyme activity (Gly-D-Phe substrate, fluorimetric detection of D-Phe) [1] | binding result (human DPEP2) | binding result (human DPEP3) | binding result [2] | binding result [3] | binding result [4]
1 | human membrane dipeptidase (DPEP-1) (protein) DFFRDEAERIMRDSPVIDGHNDLPWQLLDMFNNRLQDERANLTTLAGTHTNIPKLRAGFVGGQFWSVYTPCDTQNKDAVRRTLEQMDVVHRMCRMYPETFLYVTSSAGIRQAFREGKVASLIGVEGGHSIDSSLGVLRALYQLGMRYLTLTHSCNTPWADNWLVDTGDSEPQSQGLSPFGQRVVKELNRLGVLIDLAHVSVATMKATLQLSRAPVIFSHSSAYSVCASRRNVPDDVLRLVKQTDSLVMVNFYNNYISCTNKANLSQVADHLDHIKEVAGARAVGFGGDFDGVPRVPEGLEDVSKYPDLIAELLRRNWTEAEVKGALADNLLRVFEAVEQASNLTQAPEEEPIPLDQLGGSCRTHYGYSS | LSALT does not Inhibit Membrane Dipeptidase (DPEP-1) Enzyme Activity |  |  |  |  | 
2 | CGFECVRQCPERC (cysteine pairing not given here; also: conjugated with Alexa-488 or Alexa-568, attachment site not given here) [GFE-1 peptide (CGFECVRQCPERC)] |  | no binding | no binding | binds |  | 
3 | LSALTPSPSWLKYKAL (also: Alexa-488 conjugate in binding assays, site not given here, Phage-display derived peptide; also called Metablok) [LSALT peptide (LSALTPSPSWLKYKAL)] |  | no binding | no binding |  | binds | binds

Source: patent US20200078442A1 (ARCH BIOPARTNERS, published 2020)
